# Reference: publication PMC4016182, “First Functional and Mutational Analysis of Group 3 N-Acetylneuraminate Lyases from Lactobacillus antri and Lactobacillus sakei 23K” (PLoS ONE, 2014)
# Legend:
# [1] = target: N-acetylneuraminate lyase from Lactobacillus sakei 23K (Lactobacillus sakei 23K) (UniProt Q38V37); test: SEC; gel filtration on Superdex200 10/300 GL in 50 mM phosphate buffer pH 7.0 with 0.15 M NaCl; native mass compared with the subunit mass by HPLC/MS/ESI and SDS-PAGE
# LaNAL = target: T1, LaNAL (Limosilactobacillus antri, UniProt C8P490); test: NAD+-coupled ManNAc dehydrogenase assay, […] nm; format: biochemical
# T1 construct: gene FC31_GL000711; N-terminal His-tag (pET-28a), E. coli Rosetta 2; nanA gene printed as 828 bp; homotetramer 140 kDa; EC 4.1.3.3
# T1 sequence (C8P490 1-305): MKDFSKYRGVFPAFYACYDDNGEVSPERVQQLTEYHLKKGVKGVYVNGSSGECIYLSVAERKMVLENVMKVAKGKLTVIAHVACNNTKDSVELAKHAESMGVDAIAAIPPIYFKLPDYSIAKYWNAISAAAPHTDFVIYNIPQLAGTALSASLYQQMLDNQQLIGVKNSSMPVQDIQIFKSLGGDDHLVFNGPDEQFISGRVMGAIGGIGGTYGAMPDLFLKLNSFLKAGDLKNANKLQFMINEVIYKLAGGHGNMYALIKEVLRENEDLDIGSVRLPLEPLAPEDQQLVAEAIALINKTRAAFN
# LsNAL [2] = target: T2, LsNAL (Latilactobacillus sakei, UniProt Q38V37); test: thermal shift, SYPRO Orange; format: binding; conditions: 5 mM sodium pyruvate; several pHs (4-9)
# T2 construct: gene nanA; N-terminal His-tag (pET-28a), E. coli Rosetta 2; nanA gene 918 bp; homotetramer 140 kDa; EC 4.1.3.3
# T2 sequence (Q38V37 1-305): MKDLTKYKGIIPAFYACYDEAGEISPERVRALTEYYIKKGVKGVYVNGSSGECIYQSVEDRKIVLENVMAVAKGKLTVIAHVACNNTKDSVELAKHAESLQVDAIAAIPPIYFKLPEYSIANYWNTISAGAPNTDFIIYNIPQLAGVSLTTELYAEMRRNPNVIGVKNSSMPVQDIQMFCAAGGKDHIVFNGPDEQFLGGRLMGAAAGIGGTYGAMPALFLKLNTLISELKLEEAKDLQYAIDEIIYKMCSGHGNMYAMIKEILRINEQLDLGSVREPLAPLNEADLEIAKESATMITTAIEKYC
# LsNAL [3] = target: T2, LsNAL; test: NAD+-coupled ManNAc dehydrogenase assay, […] nm; format: biochemical
# [4] = target: N-acetylneuraminate lyase from Lactobacillus antri (Lactobacillus antri) (UniProt C8P490); test: SEC; gel filtration on Superdex200 10/300 GL in 50 mM phosphate buffer pH 7.0 with 0.15 M NaCl; native mass compared with the subunit mass by HPLC/MS/ESI and SDS-PAGE
# [5] = substrate: CC(=O)C(=O)O; test: Neu5Ac synthesis, HPLC-ELSD; format: biochemical, Limosilactobacillus antri; conditions: co-substrate ManNAc, 20 mM phosphate pH 7.0, 37 C
# Text: Neu5Ac synthesis, HPLC-ELSD on LaNAL
# [6] = substrate: CC(=O)C(=O)O; test: Neu5Ac synthesis, HPLC-ELSD; format: biochemical, Latilactobacillus sakei; conditions: co-substrate ManNAc, 20 mM phosphate pH 7.0, 37 C
# Text: Neu5Ac synthesis, HPLC-ELSD on LsNAL
Molecule,Km [5] [µM],kcat [5] [s⁻¹],kcat/Km [5] [M⁻¹ s⁻¹],also measured
N-acetylneuraminate lyase from Lactobacillus sakei 23K (from UniProt Q38V37 1-305) (enzyme),–,–,–,stoichiometry N [1]: 4
CC(=O)C(=O)O [pyruvate],–,–,–,Ki (LaNAL): 160 µM; Tm (LsNAL [2]): protective effect was more evident at basic pHs; Ki (LsNAL [3]): 400 µM
N-acetylneuraminate lyase from Lactobacillus antri (from UniProt C8P490 1-305) (enzyme),–,–,–,stoichiometry N [4]: 4
"LaNAL (Limosilactobacillus antri DSM 16041; G210S/Y213G) (protein, N-terminal His-tag (pET-28a), E. coli Rosetta 2; nanA gene printed as 828 bp; homotetramer 140 kDa; EC 4.1.3.3) MKDFSKYRGVFPAFYACYDDNGEVSPERVQQLTEYHLKKGVKGVYVNGSSGECIYLSVAERKMVLENVMKVAKGKLTVIAHVACNNTKDSVELAKHAESMGVDAIAAIPPIYFKLPDYSIAKYWNAISAAAPHTDFVIYNIPQLAGTALSASLYQQMLDNQQLIGVKNSSMPVQDIQIFKSLGGDDHLVFNGPDEQFISGRVMGAIGGISGTGGAMPDLFLKLNSFLKAGDLKNANKLQFMINEVIYKLAGGHGNMYALIKEVLRENEDLDIGSVRLPLEPLAPEDQQLVAEAIALINKTRAAFN",4300 ± 2000,3 ± 0.3,710,–
"LaNAL (Limosilactobacillus antri DSM 16041; P193Y) (protein, N-terminal His-tag (pET-28a), E. coli Rosetta 2; nanA gene printed as 828 bp; homotetramer 140 kDa; EC 4.1.3.3) MKDFSKYRGVFPAFYACYDDNGEVSPERVQQLTEYHLKKGVKGVYVNGSSGECIYLSVAERKMVLENVMKVAKGKLTVIAHVACNNTKDSVELAKHAESMGVDAIAAIPPIYFKLPDYSIAKYWNAISAAAPHTDFVIYNIPQLAGTALSASLYQQMLDNQQLIGVKNSSMPVQDIQIFKSLGGDDHLVFNGYDEQFISGRVMGAIGGIGGTYGAMPDLFLKLNSFLKAGDLKNANKLQFMINEVIYKLAGGHGNMYALIKEVLRENEDLDIGSVRLPLEPLAPEDQQLVAEAIALINKTRAAFN",500 ± 10,0.99 ± 0.03,1980,–
"LaNAL (Limosilactobacillus antri DSM 16041) (protein, N-terminal His-tag (pET-28a), E. coli Rosetta 2; nanA gene printed as 828 bp; homotetramer 140 kDa; EC 4.1.3.3) MKDFSKYRGVFPAFYACYDDNGEVSPERVQQLTEYHLKKGVKGVYVNGSSGECIYLSVAERKMVLENVMKVAKGKLTVIAHVACNNTKDSVELAKHAESMGVDAIAAIPPIYFKLPDYSIAKYWNAISAAAPHTDFVIYNIPQLAGTALSASLYQQMLDNQQLIGVKNSSMPVQDIQIFKSLGGDDHLVFNGPDEQFISGRVMGAIGGIGGTYGAMPDLFLKLNSFLKAGDLKNANKLQFMINEVIYKLAGGHGNMYALIKEVLRENEDLDIGSVRLPLEPLAPEDQQLVAEAIALINKTRAAFN",1100 ± 200,5.6 ± 0.1,5100,–
"LsNAL (Latilactobacillus sakei subsp. sakei 23K) (protein, N-terminal His-tag (pET-28a), E. coli Rosetta 2; nanA gene 918 bp; homotetramer 140 kDa; EC 4.1.3.3) MKDLTKYKGIIPAFYACYDEAGEISPERVRALTEYYIKKGVKGVYVNGSSGECIYQSVEDRKIVLENVMAVAKGKLTVIAHVACNNTKDSVELAKHAESLQVDAIAAIPPIYFKLPEYSIANYWNTISAGAPNTDFIIYNIPQLAGVSLTTELYAEMRRNPNVIGVKNSSMPVQDIQMFCAAGGKDHIVFNGPDEQFLGGRLMGAAAGIGGTYGAMPALFLKLNTLISELKLEEAKDLQYAIDEIIYKMCSGHGNMYAMIKEILRINEQLDLGSVREPLAPLNEADLEIAKESATMITTAIEKYC",–,–,–,Km [6]: 12500 ± 200 µM; kcat [6]: 3.9 ± 0.1 s⁻¹; kcat/Km [6]: 310 M⁻¹ s⁻¹
